# Measured values as given in publication PMC13570301.
# Columns and labels:
# [1] = molecular target: UBE2D2 (1–147), from the plasmid pHis//2 Hs UBE2D2 (1–147) (human) (UniProt P62837); assay: BLI; conditions: enzyme
# [2] = molecular target: CHIP Y230Cfs∗9, recombinant, C-terminal His tag (human) (UniProt Q9UNE7); assay: mass photometry; Refeyn OneMP; CHIP at 50 nM final (a subset also at 20 nM and 100 nM) in 20 mM HEPES pH 8.0, 200 mM NaCl; self-association, oligomeric states by mass
# Chain of CHIP Y230Cfs∗9, recombinant, C-terminal His tag (Q9UNE7 whole entry): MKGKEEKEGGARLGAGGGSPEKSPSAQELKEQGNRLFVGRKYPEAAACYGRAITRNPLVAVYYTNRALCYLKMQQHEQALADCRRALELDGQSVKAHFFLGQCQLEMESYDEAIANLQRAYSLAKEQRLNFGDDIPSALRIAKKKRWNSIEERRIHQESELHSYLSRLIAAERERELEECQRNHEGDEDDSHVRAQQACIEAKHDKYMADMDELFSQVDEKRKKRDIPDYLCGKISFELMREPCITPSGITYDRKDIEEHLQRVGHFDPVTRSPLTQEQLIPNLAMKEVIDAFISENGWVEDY
# Chain of CHIP L275Dfs∗16, recombinant, C-terminal His tag (Q9UNE7 whole entry): as above
# Chain of UBE2D2 (1–147), from the plasmid pHis//2 Hs UBE2D2 (1–147) (human) (P62837 whole entry): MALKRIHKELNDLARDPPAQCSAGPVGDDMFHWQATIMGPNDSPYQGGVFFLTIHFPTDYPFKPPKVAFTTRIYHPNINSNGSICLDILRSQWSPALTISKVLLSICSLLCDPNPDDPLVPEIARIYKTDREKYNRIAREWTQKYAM
Kd [1] [µM],percent of the protein as dimer [2] [%],stoichiometry N [2],Substance
308,,,"CHIP L275Dfs∗16, recombinant, C-terminal His tag (from UniProt Q9UNE7-1 1-303)"
,80,2,"CHIP Y230Cfs∗9, recombinant, C-terminal His tag (from UniProt Q9UNE7-1 1-303) (enzyme)"
